According to paper PMC6599224:

Biological target: T1, IscR-WT (Pseudomonas aeruginosa PAO1) (UniProt Q9HXI7)
T1 sequence: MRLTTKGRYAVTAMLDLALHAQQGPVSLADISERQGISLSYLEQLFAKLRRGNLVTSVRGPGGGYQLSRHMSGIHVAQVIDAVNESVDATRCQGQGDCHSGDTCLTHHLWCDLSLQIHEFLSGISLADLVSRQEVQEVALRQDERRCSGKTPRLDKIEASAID
Experiment: DNase I footprinting
Conditions: EMSA: 20 mM Tris-HCl pH 8.0, 50 mM KCl, 4 mM MgCl2, 0.5 mM EDTA, 0.02 mg/ml BSA, 5 mM DTT, 10% glycerol, 200 ng poly(dI-dC), 3 fmol probe in 25 ul, 25 C …

“GCCTTTCTGCGGGAGCTGGCCATCGACGTTGACCGGGTTGCCCTTGAGAGTCACTTGAGCCATTGCGTTGATCCTTCTAGTCAGTGAGAAGCCGCCGGCCCTGTGGCCGGCGGCGGAAGCATTCGGGGCCGGCGACGATGCTAGCACGCTTTACCCGAGCGAAAACCTCGGGTTTGAGCATCGCCGTCCCCCGAGGCTCAACTCCTGGCCTTGGCGAAATACTCCCGGGTC (double strand) [tpx promoter]” was tested, and the binding was “binds”.
